Source: publication PMC8807876

Target: TopBP1 (UniProt Q92547)
Assay: anti-GFP nanobody IP, TopBP1 immunoblot
Conditions: reference: wild type; sites T969,S1001

binding against the reference: lost
Substance: Treslin/TICRR (from UniProt Q7Z2Z1) 2PM (T969A/S1001A)
